Results as given in PMC8951541, “Sunflower WRINKLED1 Plays a Key Role in Transcriptional Regulation of Oil Biosynthesis”.

Experiments:
[1] = molecular target: T1, His-HaWRI1(52-234), AP2 domain (Helianthus annuus, UniProt A0A251SM13 52-234); experiment: EMSA; poly(dI-dC) 0.05 ug/uL; 280 ng protein; 2 fmol/uL probe; EMSA: 15 mM HEPES-KOH pH 7.5, 7.5 mM KCl, 0.5 mM EDTA, 5% glycerol, 2 mM DTT, 1 ug/uL BSA, 0.05 ug/uL poly(dI-dC), 20 uL, on ice 30 min; 5% native PAGE; conditions: protein: recombinant; tags: 6xHis (pET41a-6xHis vector); label: 5' biotin
[2] = molecular target: T1, His-HaWRI1(52-234), AP2 domain; experiment: competition; 10x to 60x unlabeled probe against biotin-labeled N1 (EMSA); EMSA: 15 mM HEPES-KOH pH 7.5, 7.5 mM KCl, 0.5 mM EDTA, 5% glycerol, 2 mM DTT, 1 ug/uL BSA, 0.05 ug/uL poly(dI-dC), 20 uL, on ice 30 min; 5% native PAGE; conditions: protein: recombinant; tags: 6xHis (pET41a-6xHis vector); label: none

T1 sequence (A0A251SM13 entry or part of it): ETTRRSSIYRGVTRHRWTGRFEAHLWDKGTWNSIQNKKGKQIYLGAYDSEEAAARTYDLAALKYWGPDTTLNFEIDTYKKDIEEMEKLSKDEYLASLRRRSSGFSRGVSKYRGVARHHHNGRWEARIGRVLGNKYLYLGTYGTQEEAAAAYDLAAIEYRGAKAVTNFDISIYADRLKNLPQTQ

B1: proBCCP2 AW-box probe (dsDNA)
DNA 1: TACTTCCTCGGTTTCATCGTCCAC
DNA 2: GTGGACGATGAAACCGAGGAAGTA
[1]
  binding result: binds

B2: proBCCP2 AW-box cold probe (dsDNA)
DNA 1: TACTTCCTCGGTTTCATCGTCCAC
DNA 2: GTGGACGATGAAACCGAGGAAGTA
[2]
  binding result: binds
